From paper PMC4004541, “PEG-Like Nanoprobes: Multimodal, Pharmacokinetically and Optically Tunable Nanomaterials” (PLoS ONE, 2014)

What was measured:
[1] = Quantum yield of fluorochrome-bearing peptides and PN's; type: physicochemical; conditions: means±1 S.D.
Description: (The p values showing significances are in Figure S2 in File S1). […] PEG attachment increased quantum yields in all cases, but as discussed below the magnitude of PEG generated improvement varied with the fluorochrome chosen. A mechanism for the PEG improvement of quantum yield is fluorochrome shielding, or the blocking of fluorochrome-fluorochrome interactions that result in quenching.
However, the magnitude of these benefits varied with the fluorochrome selected. […] Previous studies indicated PEGylated, fluorochrome-bearing peptides have absorption spectra in PBS similar to their unstacked absorption spectra in methanol. […] It appears that longer wavelength fluorochromes have stronger fluorochrome/fluorochrome stacking interactions, which result in more quenching, which is blocked by PEG and which gives rise to larger increases in quantum yield.

[2] = Circulating form of PN's: FPLC of sera of injected mice; type: in vivo; conditions: 20 nmoles IV tail vein, nude mice, FPLC at 783 nm
Experimental: To see if the variable PN size could be translated into tunable pharmacokinetics, it was essential to first establish that PN’s circulated at PEG-determined, pre-injection dimensions. Mice were injected with PN’s and FPLC chromatograms of serum samples, taken at various times post injection ( Figures 2D, 2E and 2F ), compared with pre-injection PN samples. By using PN’s absorbing at 783 nm, chromatograms from the sera of injected mice reflect this PN, since there are no compounds in serum that absorb at this wavelength. […] Similarly, peaks for PN(783)6.1 ( Figure 2E ) and PN(783)4.3 ( Figure 2F ) where identical for pre-injection samples and for nanoprobes in the sera of injected mice. Thus, molecular weight of the PEG chosen determines PN dimensions in vitro and those dimensions are maintained after injection.
(§1) At the indicated time, 50 µl of blood was collected with microhematocrit capillary tube (Fisher Scientific) from the tail, and transferred to Eppendorf microcentrifuge tube with anticoagulant (EDTA) coating (Fisher Scientific). Tubes were centrifuged (5000 rpm for 5 min), and the supernatant was injected to the FPLC, a ÄKTA Purifier 10 with SuperdexTM 200 10/300GL column.
as §1, with “μl” for “µl”

HT-29 cells = assay: Non-specific binding (NSB) to HT-29 cells by FACS; type: cell-based, human; conditions: 100 μL of nanoprobes (2 μM) added to 100 μl 2% FBS/DPBS, 30 min at 37 °C, means±1 S.D.
Description: We next examined the non-specific binding (NSB) of PN’s to HT-29 cells based on the assumption that NSB minimization will correlate with a desirable minimization of post-IV injection retention. As noted above, after diagnostic drugs generate their added information, retention can only increase the risks of delayed toxicity. The attachment of PEG decreased the non-specific binding (NSB) to HT-29 cells, scored as the percent of cells above the cutoff for unstained cells seen with FACS ( Table 1 , column 7).
PN and peptide binding to cells (effect of PEGylation on NSB): HT-29, a human colon carcinoma cell line, was from the American Tissue Culture Collection and maintained according to their instructions. Cells were seeded on 24-well plates at 5X10^5 cells/well in culture medium (RPMI 1640 with 10% FBS) the day before the assay. The day of assay, medium was removed, wells rinsed twice with DPBS (+Ca, +Mg), and 100 μl of 2% FBS / DPBS (+Ca, +Mg) added. 100 μL of Nanoprobes (2 μM) in DPBS (+Ca, +Mg) was added to cells and incubated for 30min at 37 °C. (Probe concentrations were determined spectrophotometrically (783 nm, extinction coefficient of 314 471 cm^-1 M^-1 for IR-783; 497 nm, extinction coefficient of 68 000 cm^-1 M^-1 for Fluorescein; 545 nm, extinction coefficient of 150 000 cm^-1 M^-1 for Cy3). Cells were detached by Trypsin/EDTA and assayed for fluorescence by FACS (BD 7 laser LSR2 for nanoprobes with IR-783; BD 3 laser LSR2 for nanoprobes with Fluorescein or Cy3).
Figure S4: Effect of PEGylation on non-specific binding to cells by single channel FACS. […] Arrows indicates the cutoff for unstained cells.

[3] = Probe size (volume) by FPLC calibrated with globular protein standards; type: physicochemical; conditions: for Volume FPLC, globular protein equivalent molecular volume: Superdex 200 10/300GL, 0.05 M sodium phosphate, 0.1 M NaCl (0.1% Tween, pH 7.2), 0.8 ml/min, calibrated with globular protein standards; for Volume FPLC Dia. (diameter): globular protein equivalent volume from FPLC converted to spherical diameter by formula (ref 15)
Description: FPLC chromatograms are shown for PN’s bearing the IR-783 fluorochrome with PEG’s ranging from 2 to 40 kDa ( Figure 2A ). FPLC was calibrated with globular protein standards, and globular protein equivalent molecular volumes (in kDa) were obtained ( Table 1 , column 5). Next, these globular protein equivalent molecular volumes were converted to PN diameters in nm using the relationship: [drawing 1] where M is the molecular weight of a globular protein expressed in daltons. PN diameters ranged from 3.0 to 11.7 nm, which means PN’s can be smaller or larger than albumin (MW = 67 kDa; diameter = 5.4 nm, by the formula above). Thus Table 1 column 5 gives the PN volumes obtained from FPLC expressed in two ways: (i) as the molecular weight in kDa of globular proteins with equivalent volumes, permitting size comparison of PN’s to proteins, and, (ii) as spherical diameters (“Dia.”) in nm, permitting size comparisons of a PN to relative to other nanomaterials. We confirmed the sizes obtained with FPLC by measuring the size of PN(783)11.7 by dynamic light scattering (11.7 nm).
The mass spec of low molecular weight (MW) materials were obtained by MS-ESI Micromass (Waters) and high MW molecules were determined through MALDI-TOF analyses at the Tufts University Core Facility. RP-HPLC (Varian ProStar detector and delivery modules) employed an eluant A (0.1% TFA/water) and eluant B (0.1% TFA and 9.9% water in acetonitrile). Probe size (volume) was determined by FPLC using an ÄKTA Purifier 10 and SuperdexTM 200 10/300GL column (GE Healthcare) with a running buffer of 0.05 M sodium phosphate, 0.1 M NaCl (0.1% Tween, pH 7.2) and flow rate of 0.8 ml/min. Standards (GE Healthcare) were Ferritin, Ribonuclease A, Carbonic Anhydrase, and Conalbumin and Blue Dextran 2000. To obtain probe volumes, Mr (apparent molecular weight based on size exclusion retention) was plotted versus Kav. [drawing 7] , Vt = total volume, Ve = elution volume, Vo = void volume.
PN and peptide characterization: The mass spec of low molecular weights (MW) were obtained by MS-ESI Micromass (Waters) and high MW molecules were determined through MALDI-TOF analyses at the Tufts University Core Facility. RP-HPLC (Varian ProStar detector and delivery modules) employed an eluant A (0.1% TFA /water) and eluant B (0.1% TFA and 9.9% water in acetonitrile). […] Standards (GE Healthcare) were Ferritin, Ribonuclease A, Carbonic Anhydrase, and Conalbumin and Blue Dextran 2000. To obtain probe volumes, Mr (apparent molecular weight based on size exclusion retention) was plotted versus Kav. [picture] , Vt = total volume, Ve = elution volume, Vo = void volume.

Substance | Quant. Yield [1] | Circulating size: FPLC peaks of serum samples after injection versus pre-injection sample [2] | Cell NSB: percent of HT-29 cells above the cutoff for unstained cells (HT-29 cells) | Volume FPLC, globular protein equivalent molecular volume [3] | Volume FPLC Dia. (diameter) [3]
(DOTA)Lys(PEG 5 kDa)-Cys(IR-783) [PN(783)4.3, PEG-like Nanoprobe: 5 kDa PEG, IR-783 fluorochrome, DOTA peptide] | 0.16±0.03 | identical | 20±1% | 35.2 kDa | 4.3 nm
(DOTA)Lys(PEG 30 kDa)-Cys(IR-783) [PN(783)10.0, PEG-like Nanoprobe: 30 kDa PEG, IR-783 fluorochrome, DOTA peptide] | 0.16±0.04 | circulates at its pre-injection size | 18±1% | 435.4 kDa | 10.0 nm
(DOTA)Lys(PEG 30 kDa)-Cys(Fl) [PN(497)10.0, PEG-like Nanoprobe: 30 kDa PEG, fluorescein, DOTA peptide] | 0.60±0.08 |  | 0.1% ±0.1% | 435 kDa | 
